Measurements taken from publication PMC11381544 (Nature Communications, 2024).

B1: human prolyl 3-hydroxylase 1 (P3H1) (enzyme, UniProt Q32P28-1 23-736, looked up)
chain: EVESEAGWGMVTPDLLFAEGTAAYARGDWPGVVLSMERALRSRAALRALRLRCRTQCAADFPWELDPDWSPSPAQASGAAALRDLSFFGGLLRRAACLRRCLGPPAAHSLSEEMELEFRKRSPYNYLQVAYFKINKLEKAVAAAHTFFVGNPEHMEMQQNLDYYQTMSGVKEADFKDLETQPHMQEFRLGVRLYSEEQPQEAVPHLEAALQEYFVAYEECRALCEGPYDYDGYNYLEYNADLFQAITDHYIQVLNCKQNCVTELASHPSREKPFEDFLPSHYNYLQFAYYNIGNYTQAVECAKTYLLFFPNDEVMNQNLAYYAAMLGEEHTRSIGPRESAKEYRQRSLLEKELLFFAYDVFGIPFVDPDSWTPEEVIPKRLQEKQKSERETAVRISQEIGNLMKEIETLVEEKTKESLDVSRLTREGGPLLYEGISLTMNSKLLNGSQRVVMDGVISDHECQELQRLTNVAATSGDGYRGQTSPHTPNEKFYGVTVFKALKLGQEGKVPLQSAHLYYNVTEKVRRIMESYFRLDTPLYFSYSHLVCRTAIEEVQAERKDDSHPVHVDNCILNAETLVCVKEPPAYTFRDYSAILYLNGDFDGGNFYFTELDAKTVTAEVQPQCGRAVGFSSGTENPHGVKAVTRGQRCAIALWFTLDPRHSERDRVQADDLVKMLFSPEEMDLSQEQPLDAQQGPPEPAQESLSGSESKPKDEL
B2: human cartilage-associated protein (CRTAP), strep-tagged (natural protein, UniProt O75718 27-401, looked up)
chain: QYERYSFRSFPRDELMPLESAYRHALDKYSGEHWAESVGYLEISLRLHRLLRDSEAFCHRNCSAAPQPEPAAGLASYPELRLFGGLLRRAHCLKRCKQGLPAFRQSQPSREVLADFQRREPYKFLQFAYFKANNLPKAIAAAHTFLLKHPDDEMMKRNMAYYKSLPGAEDYIKDLETKSYESLFIRAVRAYNGENWRTSITDMELALPDFFKAFYECLAACEGSREIKDFKDFYLSIADHYVEVLECKIQCEENLTPVIGGYPVEKFVATMYHYLQFAYYKLNDLKNAAPCAVSYLLFDQNDKVMQQNLVYYQYHRDTWGLSDEHFQPRPEAVQFFNVTTLQKELYDFAKENIMDDDEGEVVEYVDDLLELEETS

Experiments:
[1] = biological target: B2; test: cryo-EM structure
[2] = biological target: B1; test: cryo-EM structure
SEC = biological target: the molecule itself; test: SEC

With B1 the “stoichiometry N” value [1] was 1.

B2: binds [2].

B3: human peptidyl-prolyl cis-trans isomerase B (PPIB), flag-tagged (enzyme)
chain: not shown
With B3 the “stoichiometry N” value [2] was 1 and the “stoichiometry N” value [1] was 1.

B4: PCP complex with mutation W675L of P3H1 (complex)
chain 1: EVESEAGWGMVTPDLLFAEGTAAYARGDWPGVVLSMERALRSRAALRALRLRCRTQCAADFPWELDPDWSPSPAQASGAAALRDLSFFGGLLRRAACLRRCLGPPAAHSLSEEMELEFRKRSPYNYLQVAYFKINKLEKAVAAAHTFFVGNPEHMEMQQNLDYYQTMSGVKEADFKDLETQPHMQEFRLGVRLYSEEQPQEAVPHLEAALQEYFVAYEECRALCEGPYDYDGYNYLEYNADLFQAITDHYIQVLNCKQNCVTELASHPSREKPFEDFLPSHYNYLQFAYYNIGNYTQAVECAKTYLLFFPNDEVMNQNLAYYAAMLGEEHTRSIGPRESAKEYRQRSLLEKELLFFAYDVFGIPFVDPDSWTPEEVIPKRLQEKQKSERETAVRISQEIGNLMKEIETLVEEKTKESLDVSRLTREGGPLLYEGISLTMNSKLLNGSQRVVMDGVISDHECQELQRLTNVAATSGDGYRGQTSPHTPNEKFYGVTVFKALKLGQEGKVPLQSAHLYYNVTEKVRRIMESYFRLDTPLYFSYSHLVCRTAIEEVQAERKDDSHPVHVDNCILNAETLVCVKEPPAYTFRDYSAILYLNGDFDGGNFYFTELDAKTVTAEVQPQCGRAVGFSSGTENPHGVKAVTRGQRCAIALLFTLDPRHSERDRVQADDLVKMLFSPEEMDLSQEQPLDAQQGPPEPAQESLSGSESKPKDEL
chain 2: QYERYSFRSFPRDELMPLESAYRHALDKYSGEHWAESVGYLEISLRLHRLLRDSEAFCHRNCSAAPQPEPAAGLASYPELRLFGGLLRRAHCLKRCKQGLPAFRQSQPSREVLADFQRREPYKFLQFAYFKANNLPKAIAAAHTFLLKHPDDEMMKRNMAYYKSLPGAEDYIKDLETKSYESLFIRAVRAYNGENWRTSITDMELALPDFFKAFYECLAACEGSREIKDFKDFYLSIADHYVEVLECKIQCEENLTPVIGGYPVEKFVATMYHYLQFAYYKLNDLKNAAPCAVSYLLFDQNDKVMQQNLVYYQYHRDTWGLSDEHFQPRPEAVQFFNVTTLQKELYDFAKENIMDDDEGEVVEYVDDLLELEETS
chain 3: not shown
B4: binds (SEC).
